Experiments:
Test in all cases: SEC
[1] = molecular target: ΔNp63α R279H in the V603D background
[2] = molecular target: ΔNp63α R304Q/V603D
[3] = molecular target: ΔNp63α V603D

**Q.** “ΔNp63α R279H in the V603D background (natural protein)” was tested. Which stoichiometry N [1] did it give?
**A.** 4

**Q.** How did the stoichiometry N [2] turn out when ΔNp63α R304Q/V603D (natural protein) was run?
**A.** 4

**Q.** For ΔNp63α V603D (natural protein), which stoichiometry N [3] is on record?
**A.** 4

Reference: publication PMC5798343
